# In publication PMC10786891, “Massively parallel profiling of RNA-targeting CRISPR-Cas13d”:
# Positions count from the first letter of the chain named. Names may count otherwise.
# B1: target 1 insU 3' of 18,insC 3' of 14 (mixed)
# RNA 1: CACCCGUGCAAAAAUGCAGGGGUCUAAAACUGAGCGGAUAACCUCUCUAUGG
# RNA 2: GGGAAUGGAUCCACAUCUACGAAUUCGUACCAUAUGAGACGGUUAUCCGCUCACCGAGAUCGGAAGAGCACACGU
# B2: target 1 insA 3' of 10,insA 3' of 7 (mixed)
# RNA 1: B1 RNA 1
# RNA 2: GGGAAUGGAUCCACAUCUACGAAUUCGUACCAUAGAGAGGUUAAUCACGCUCACCGAGAUCGGAAGAGCACACGU
# B3: target 1 C4A,C22G (mixed)
# RNA 1: B1 RNA 1
# RNA 2: GGGAAUGGAUCCACAUCUACGAAUUCGUAGCAUAGAGAGGUUAUCCGAUCACCGAGAUCGGAAGAGCACACGU
# B4: target 1 U8C,U10C (mixed)
# RNA 1: B1 RNA 1
# RNA 2: B3 RNA 2 with G30C, U42C, U44C, A48C
# B5: target 1 G12A,A14C (mixed)
# RNA 1: B1 RNA 1
# RNA 2: B3 RNA 2 with G30C, A38C, G40A, A48C
# B6: target 1 insA 3' of 22,insU 3' of 5 (mixed)
# RNA 1: B1 RNA 1
# RNA 2: GGGAAUGGAUCCACAUCUACGAAUUCGUACACAUAGAGAGGUUAUCCGUCUCACCGAGAUCGGAAGAGCACACGU
# B7: target 1 G13U,G15U (mixed)
# RNA 1: B1 RNA 1
# RNA 2: B3 RNA 2 with G30C, G37U, G39U, A48C
# B8: target 1 insG 3' of 16,insA 3' of 6 (mixed)
# RNA 1: B1 RNA 1
# RNA 2: B2 RNA 2 with A38G, G39A, U41G, A43U, A47C, C48A
# B9: target 1 insC 3' of 19,insU 3' of 6 (mixed)
# RNA 1: B1 RNA 1
# RNA 2: B6 RNA 2 with A31C, C32A, A33U, U34C, G48U, U49G
# B10: target 1 C4G,G12C (mixed)
# RNA 1: B1 RNA 1
# RNA 2: B3 RNA 2 with G30C, G40C, A48G
# B11: target 1 insC 3' of 19,insA 3' of 15 (mixed)
# RNA 1: B1 RNA 1
# RNA 2: B1 RNA 2 with A34C, U35A, C40A
# B12: target 1 insA 3' of 22,insU 3' of 6 (mixed)
# RNA 1: B1 RNA 1
# RNA 2: B6 RNA 2 with G48U, U49G
# B13: target 1 insA 3' of 3,insA 3' of 3 (mixed)
# RNA 1: B1 RNA 1
# RNA 2: B2 RNA 2 with A44U, U45C, A47G, G49U, C50A, U51A
# B14: target 1 insU 3' of 22,insC 3' of 3 (mixed)
# RNA 1: B1 RNA 1
# RNA 2: B6 RNA 2 with A31U, U49C, C50U, U51C
# B15: target 1 insC 3' of 13,insU 3' of 12 (mixed)
# RNA 1: B1 RNA 1
# RNA 2: B1 RNA 2 with U35G, G36A, A37G, G38A, A39G, G42U
# B16: target 1 insU 3' of 22,insA 3' of 22 (mixed)
# RNA 1: B1 RNA 1
# RNA 2: B1 RNA 2 with C31U, U33C, G36A, A37G, G38A, A39G, C40A
# B17: target 1 C6A,U8G (mixed)
# RNA 1: B1 RNA 1
# RNA 2: B3 RNA 2 with G30C, U44G, C46A, A48C
# B18: target 1 insC 3' of 14,insU 3' of 7 (mixed)
# RNA 1: B1 RNA 1
# RNA 2: B2 RNA 2 with G39C, U41G, A43U, A47U
# B19: target 1 insA 3' of 12,insA 3' of 11 (mixed)
# RNA 1: B1 RNA 1
# RNA 2: B2 RNA 2 with U41A, A44U, U45A, C46U, A47C
# B20: target 1 insG 3' of 9,insC 3' of 5 (mixed)
# RNA 1: B1 RNA 1
# RNA 2: B2 RNA 2 with A44G, A47C, C48G, G49C
# B21: target 1 C7A,U8A (mixed)
# RNA 1: B1 RNA 1
# RNA 2: B3 RNA 2 with G30C, U44A, C45A, A48C
# B22: target 1 insU 3' of 17,insC 3' of 5 (mixed)
# RNA 1: B1 RNA 1
# RNA 2: B6 RNA 2 with A31C, C32A, A33U, U34A, A35G, G36U, U49C
# B23: target 1 insA 3' of 7,insU 3' of 5 (mixed)
# RNA 1: B1 RNA 1
# RNA 2: B2 RNA 2 with A44U, U45C, C46A, A47C, C48G, G49U
# B24: target 1 insC 3' of 19,insU 3' of 5 (mixed)
# RNA 1: B1 RNA 1
# RNA 2: B6 RNA 2 with A31C, C32A, A33U, U34C
# B25: target 1 insG 3' of 7,insC 3' of 5 (mixed)
# RNA 1: B1 RNA 1
# RNA 2: B2 RNA 2 with A44U, U45C, C46G, A47C, C48G, G49C
# B26: target 1 G13A,G15U (mixed)
# RNA 1: B1 RNA 1
# RNA 2: B3 RNA 2 with G30C, G37U, G39A, A48C
# B27: target 1 insU 3' of 21,insU 3' of 21 (mixed)
# RNA 1: B1 RNA 1
# RNA 2: B1 RNA 2 with A32U, G36A, A37G, G38A, A39G, C40A
# B28: target 1 insG 3' of 9,insG 3' of 4 (mixed)
# RNA 1: B1 RNA 1
# RNA 2: B2 RNA 2 with A44G, A47C, C48G, G49C, C50G
# B29: target 1 G5A,G15C (mixed)
# RNA 1: B1 RNA 1
# RNA 2: B3 RNA 2 with G30C, G37C, G47A, A48C
# B30: target 1 U11C,A20U (mixed)
# RNA 1: B1 RNA 1
# RNA 2: B3 RNA 2 with G30C, A32U, U41C, A48C
# B31: target 1 G5C,C21A (mixed)
# RNA 1: B1 RNA 1
# RNA 2: B3 RNA 2 with G30C, C31A, G47C, A48C
# B32: target 1 A1G,U11G (mixed)
# RNA 1: B1 RNA 1
# RNA 2: B3 RNA 2 with G30C, U41G, A48C, A51G
# B33: target 1 G13A,A14C (mixed)
# RNA 1: B1 RNA 1
# RNA 2: B3 RNA 2 with G30C, A38C, G39A, A48C
# Biological target: T1, EsCas13d, nuclease-dead (Eubacterium siraeum, UniProt B0MS50, R295A;H300A;R849A;H854A)
# T1 sequence: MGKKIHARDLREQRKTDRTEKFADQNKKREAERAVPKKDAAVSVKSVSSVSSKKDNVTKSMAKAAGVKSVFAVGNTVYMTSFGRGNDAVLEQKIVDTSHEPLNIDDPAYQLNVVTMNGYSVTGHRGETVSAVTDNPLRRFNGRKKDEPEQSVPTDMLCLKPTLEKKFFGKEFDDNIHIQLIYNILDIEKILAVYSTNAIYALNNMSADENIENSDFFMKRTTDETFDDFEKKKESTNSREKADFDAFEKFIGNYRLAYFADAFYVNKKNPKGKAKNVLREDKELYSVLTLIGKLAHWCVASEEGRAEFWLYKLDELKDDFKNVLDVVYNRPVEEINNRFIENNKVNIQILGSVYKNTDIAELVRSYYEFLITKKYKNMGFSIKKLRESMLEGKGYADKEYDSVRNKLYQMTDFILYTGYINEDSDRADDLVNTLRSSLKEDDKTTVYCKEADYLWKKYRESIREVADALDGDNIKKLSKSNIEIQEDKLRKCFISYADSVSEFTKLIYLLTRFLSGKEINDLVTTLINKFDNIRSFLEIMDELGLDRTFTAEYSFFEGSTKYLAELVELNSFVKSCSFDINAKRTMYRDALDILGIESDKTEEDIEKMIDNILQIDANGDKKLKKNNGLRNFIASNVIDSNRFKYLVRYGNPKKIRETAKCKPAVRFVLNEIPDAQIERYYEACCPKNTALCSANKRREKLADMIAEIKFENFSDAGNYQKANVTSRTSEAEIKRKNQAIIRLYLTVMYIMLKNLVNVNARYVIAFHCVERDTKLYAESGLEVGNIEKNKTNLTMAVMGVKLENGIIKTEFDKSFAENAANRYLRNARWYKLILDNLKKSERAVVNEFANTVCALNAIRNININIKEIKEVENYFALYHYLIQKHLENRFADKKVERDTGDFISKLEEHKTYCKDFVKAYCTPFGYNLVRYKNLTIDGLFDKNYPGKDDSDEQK
# Experiment: crRNA (strand 1, pre-loaded); Mg2+; 40 mM Tris-HCl pH 7.5, 150 mM NaCl, 6 mM MgCl2, 1 mM DTT, 0.1% Tween-20, 0.2 mg/ml BSA; 25 C; 10 min per concentration, then washed
# Conditions: tags: His6-TwinStrep-SUMO cleaved; N-terminal SNAP kept (SNAP-Surface 488); label: 3' end held by stalled T7 RNA polymerase
row,Binder,Kd [nM]
1,B1,73 ± 23
2,B2,10.4 ± 0.5
3,B3,25 ± 8
4,B4,22.4 ± 1.3
5,B5,30.5 ± 2.6
6,B6,28 ± 7
7,B7,55 ± 19
8,B8,15 ± 0.6
9,B9,46.6 ± 2.9
10,B10,18 ± 4
11,B11,36 ± 4
12,B12,13.6 ± 0.6
13,B13,7.5 ± 0.6
14,B14,28 ± 6
15,B15,11.1 ± 0.4
16,B16,4.11 ± 0.31
17,B17,12.8 ± 0.7

row,Binder,Kd [nM]
1,B18,41 ± 8
2,B19,29 ± 5
3,B20,11.3 ± 0.5
4,B21,7.41 ± 0.23
5,B22,60 ± 14
6,B23,11.4 ± 0.33
7,B24,39 ± 13
8,B25,9.8 ± 0.6
9,B26,80 ± 40
10,B27,72 ± 13
11,B28,8.9 ± 0.6
12,B29,54 ± 17
13,B30,55 ± 7
14,B31,27 ± 5
15,B32,23.8 ± 1.6
16,B33,12 ± 0.7
